The subject of one experiment is TK10 cells. Description: FACS anti-GPNMB staining. As to conditions: primary antibody 1 μg/mL. Format: binding, human.
Experiment [1] has as its system normal and tumor human tissue microarrays. Description: GPNMB immunohistochemistry (IHC) analysis. The procedure:
Anti-GPNMB monoclonal antibodies were evaluated for reactivity with frozen and fixed tissue specimens. Tissue sections (5 μm) were cut from formalin fixed and paraffin embedded tissue samples and were rehydrated through incubations in xylene and a graded ethanol series terminating in PBS. Endogenous peroxidase activity was quenched in a 3% solution of hydrogen peroxide in methanol.
Tissue sections were blocked in blocking buffer (5% BSA (Sigma), 1% goat serum (Jackson Immunolabs, West Grove, Pa.) in PBS) for 1 hour. Primary and secondary antibodies were precomplexed in 5% BSA and 1% goat serum in PBS for 1 hour at 37° C. at a molar ratio of approximately 10:1 of anti-GPNMB or control IgG to secondary biotinylated goat anti-human IgG (Jackson Immunolabs). Complexes were blocked with a 1:2000 dilution of human serum and incubated again for 1 hour at 37° C. Tissue sections were incubated with anti-GPNMB antibody or isotype control antibody complexes diluted in blocking buffer for 1 hour. Sections were washed in 3 changes of PBS for 5 to 10 minutes each and incubated with a 1:200 dilution of streptavidin conjugated horseradish peroxidase (Jackson Immunolabs) in blocking buffer for 30 minutes and then washed as before. Antibody was detected using DAB reagent (Vector labs). […]

The target of experiment [2] is T1, GPNMB (Homo sapiens, UniProt Q14956).
T1 construct: made in house; host or cells: HEK 293
T1 sequence (Q14956 23-492): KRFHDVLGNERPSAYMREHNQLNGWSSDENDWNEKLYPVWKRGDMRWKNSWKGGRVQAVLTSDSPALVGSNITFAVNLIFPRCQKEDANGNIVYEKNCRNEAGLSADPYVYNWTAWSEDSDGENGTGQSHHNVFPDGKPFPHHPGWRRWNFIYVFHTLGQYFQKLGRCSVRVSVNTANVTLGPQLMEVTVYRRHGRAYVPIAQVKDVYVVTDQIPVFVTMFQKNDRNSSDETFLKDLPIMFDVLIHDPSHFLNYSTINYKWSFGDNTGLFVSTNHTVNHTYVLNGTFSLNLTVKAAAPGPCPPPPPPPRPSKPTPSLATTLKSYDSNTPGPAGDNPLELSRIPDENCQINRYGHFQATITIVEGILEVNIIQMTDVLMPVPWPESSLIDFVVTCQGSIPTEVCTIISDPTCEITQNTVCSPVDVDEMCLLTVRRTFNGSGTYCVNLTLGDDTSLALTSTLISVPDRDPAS
Description: Binning of antibodies (Luminex competitive binding). As to conditions: three bins of six anti-GPNMB antibodies. The procedure:
Certain antibodies, described herein were binned in accordance with the protocol described in U.S. Patent Application Publication No. 20030157730. MxhIgG conjugated beads are prepared for coupling to primary antibody. The volume of supernatant needed is calculated using the following formula: (n+10)×50 μL (where n=total number of samples on plate). Where the concentration is known, 0.5 μg/mL is used. Bead stock is gently vortexed, then diluted in supernatant to a concentration of 2500 of each bead per well or 0.5×10^5/mL and incubated on a shaker in the dark at RT overnight, or 2 hours if at a known concentration of […]. Following aspiration, 50 μL of each bead is added to each well of filter plate, then washed once by adding 100 μL/well wash buffer and aspirating. Antigen and controls are added to filter plate 50 μL/well then covered and allowed to incubate in the dark for 1 hour on shaker. Following a wash step, a secondary unknown antibody is added at 50 μL/well using the same dilution (or concentration if known) as is used for the primary antibody. The plates are then incubated in the dark for 2 hours at RT on shaker followed by a wash step. Next, 50 μL/well biotinylated mxhIgG diluted 1:500 is added and allowed to incubate in the dark for 1 hour on shaker at RT. […]

The target in experiment [3] is T1, GPNMB. Description: BiaCore 2000 biosensor binding of hybridoma supernatant mAb to GPNMB. As to conditions: mAb captured on protein A, GPNMB 880 nM, 1:1 kinetic model. The procedure:
Certain Hybridoma cell supernatants (29) were analyzed for binding to GPNMB by BiaCore® 2000 biosensor equipped with a research-grade CMS sensor chip. A 1:25 dilution of cell supernatant was passed over a protein A surface for 5 min followed by washing the surface for 10 mins. Subsequently, GPNMB was injected for 90 sec. over the surface at a concentration of 880 nM followed by dissociation. Double-referenced binding data were obtained by subtracting the signal from a control flow cell and subtracting the baseline drift of a buffer injected just prior to the antigen injection. GPNMB binding ddata for each mAb was normalized for the amount of mAb captured on each surface. Normalized, drift corrected responses were also measured. The sensorgrams were fit to a simple 1:1 kinetic model.
(In general: Surface plasmon resonance follows binding to a sensor surface in real time, without labels.)

Experiment [4] concerns the target T1, GPNMB. In words: ELISA of hybridoma supernatants for binding to GPNMB. The procedure:
After 14 days of culture, hybridoma supernatants were screened for GPNMB specific monoclonal antibodies. In the Primary screen, the ELISA plates (Fisher, Cat. No. 12-565-136) were coated with 50 μL/well of GPNMB (1 μg/mL) in Coating Buffer (0.1 M Carbonate Buffer, pH 9.6, NaHCO3 8.4 g/L), then incubated at 4° C. overnight. After incubation, the plates were washed with Washing Buffer (0.05% Tween 20 in PBS) three times. 200 μL/well Blocking Buffer (0.5% BSA, 0.1% Tween 20, 0.01% Thimerosal in 1×PBS) were added and the plates were incubated at room temperature for 1 h. After incubation, the plates were washed with Washing Buffer three times. Aliquots (50 μL/well) of hybridoma supernatants and positive and negative controls were added, and the plates were incubated at room temperature for 2 h. The positive control used throughout was serum from the relevant GPNMB immunized XenoMouse® mouse and the negative control was serum from the KLH-immunized relevant strain of XenoMouse® mouse. After incubation, the plates were washed three times with Washing Buffer. 100 μL/well of detection antibody goat anti-huIgGfc-HRP (Caltag, Cat. No. H10507, using concentration was 1:2000 dilution) was added and the plates were incubated at room temperature for 1 hour. After incubation, the plates were washed three times with Washing Buffer. 100 μl/well of TMB (BioFX Lab. Cat. No. TMSK-0100-01) was added, and the plates were allowed to develop for about 10 minutes (until negative control wells barely started to show color). 50 μl/well stop solution (TMB Stop Solution (BioFX Lab. Cat. No. STPR-0100-01) was then added and the plates were read on an ELISA plate reader at a wavelength of 450 nm.
Hybridoma supernatants were screened for binding to GPNMB by ELISA as described above in Example 2.

B1: Mab2.22.1: human anti-GPNMB antibody; VH SEQ ID NO: 164, VL SEQ ID NO: 173 (antibody, listed as Homo sapiens, V domains shown)
VH: QVQLEQSGPGLVKPSQNLSLTCTVSGGSISSGGYFWSWIRQHPGKGLEWIGYIYYSGNTYYNPSLKSRVTISVDTSKNQFSLKLSSVTAADTAVYYCARDYYYDTSGFSYRYDWYYGMDVWGQGTTVTVSSA
VL: DIQLTQSPSSLSASVGDRVTITCRASQGIRNDLGWYQQKPGKAPKRLIYAASSLQNGVPSRFSGSGSGTEFTLTISSLQPEDFATYYCLQHNTYPAFGQGTKVEIKR
B1: the “Geo Mean Ratio of anti-GPNMB Staining (relative to pK16)” value in the experiment on TK10 cells amounted to 1.10. The “staining of tissue specimens” value in experiment [1] is listed as “Positive staining”. Besides, in the experiment with GPNMB [2], the Bin result is on record as “Bin 1”.

B2: Mab1.7.1: human anti-GPNMB antibody; VH SEQ ID NO: 56, VL SEQ ID NO: 65 (antibody, listed as Homo sapiens, V domains shown)
VH: QVQLQESGPGLVKPSQTLSLTCTVSGGSISSANYYWTWIRQHPGKGLEWIGYIYYSGSTYCNPSLKSRVIISVDTSKNQFSLKLSSVTAADTAVYYCARGYNWNYFDYWGQGTLVTVSSA
VL: DIVMTQSPATLSVSPGERATLSCRASQSVSSNLAWYQERPGQAPRLLIYGASTRATGIPARFSGSGSGTEFTLTISSLQSEDFAVYYCQQYNKWPPWTFGQGTKVEIER
What is called Kd is the constant that tells how readily two partners part at equilibrium. In the experiment with GPNMB [3], B2 gave a Kd of 122 nM, a ka of 11842 M⁻¹ s⁻¹ and a kd of 0.00144 s⁻¹.

B3: Mab1.2.2: human anti-GPNMB antibody; VH SEQ ID NO: 38, VL SEQ ID NO: 47 (antibody, listed as Homo sapiens, V domains shown)
VH: ITLKESGPTLVKPTQTLTLTCTFSGFSLSAGGVGVGWIRQPPGKALEWLALIYWNDDKRYSPSLRSRLTITKDTSKNQVVLTITNMDPVDTATYYCAHSHYDYDWGSYFDYWGQGTLVTVSSA
VL: DIVMTQTPLSLPVTPGEPASISCRSSQSLLDSDDGNTYLDWYLQKPGQSPQLLIYTLSYRASGVPDRFSGSGSGTDFTLNISRVEAEDVGVYYCMQRIEFPITFGQGTRLEIKR
In the experiment with GPNMB [3], B3 showed a Kd of 96 nM. The ka in the experiment with GPNMB [3] is 9257 M⁻¹ s⁻¹. Also, the kd in the experiment with GPNMB [3] was found to be 0.00089 s⁻¹. In addition, the “Geo Mean Ratio of anti-GPNMB Staining (relative to pK16)” value with TK10 cells is 0.98. The “Avg OD” value is reported as 0.049 in the experiment with GPNMB [4] (12.3 ng/mL); 0.094 with GPNMB [4] (37 ng/mL); 0.199 with GPNMB [4] (111 ng/mL); 0.356 in the experiment with GPNMB [4] (333 ng/mL); 0.499 with GPNMB [4] (1 μg/mL); 0.763 with GPNMB [4] (3 μg/mL).

B4: Mab1.10.2: human anti-GPNMB antibody; VH SEQ ID NO: 2, VL SEQ ID NO: 11 (antibody, listed as Homo sapiens, V domains shown)
VH: QVQLQESGPGLVKPSETLSLTCTVSGDSISNYYWSWIRQPPGKGLEWIGYFYYSGSTNYNPSLKSRVTISVDTSKNQFSLKLSSVTAADTAVYYCARDRGWADYWGQGTLVTVSSA
VL: EIVLTQSPGTLSLSPGERATLSCRTSQSISSSYLAWYQQKPGQVPRLLIYGASSRATGIPDRFSGSGSGTDFTLTISRLEPEDFAVYYCQQYGSSITFGQGTRLEIKR
For the molecule B4, in the experiment with GPNMB [3], the Kd amounted to 118 nM, the ka turned out to be 3955 M⁻¹ s⁻¹ and the kd was found to be 0.000466 s⁻¹.

Values taken from patent US8846873B2, “Antibodies directed to GPNMB and uses thereof” (Celldex Therapeutics, Inc., priority 2004, dated 2014).
